Experiments:
Assay in all cases: holdup assay
Details in all cases: plain residues with an end cap or a label only (N-terminal biotin on a linker: (peg)3)
NHERF1_2, O14745 = target: T1, NHERF1_2, O14745
T1 sequence (O14745 149-244, limits assumed, looked up): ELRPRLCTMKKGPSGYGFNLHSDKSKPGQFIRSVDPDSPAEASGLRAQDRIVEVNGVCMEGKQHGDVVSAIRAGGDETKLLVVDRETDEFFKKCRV

RGS3, P49796-9 = target: RGS3, P49796-9
USH1C_2, Q9Y6N9 = target: T2, USH1C_2, Q9Y6N9
T2 sequence (Q9Y6N9 206-303, limits assumed, looked up): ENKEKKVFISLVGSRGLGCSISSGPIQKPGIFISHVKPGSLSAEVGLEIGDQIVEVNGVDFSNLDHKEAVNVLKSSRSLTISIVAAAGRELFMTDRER

MLLT4, P55196 = target: T3, MLLT4, P55196
T3 sequence (P55196 1002-1103, limits assumed, looked up): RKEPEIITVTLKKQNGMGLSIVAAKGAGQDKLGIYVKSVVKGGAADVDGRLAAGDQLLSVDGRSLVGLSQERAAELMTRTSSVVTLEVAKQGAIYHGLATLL

PDZRN3_2, Q9UPQ7 = target: T4, PDZRN3_2, Q9UPQ7
T4 sequence (Q9UPQ7 414-513, limits assumed, looked up): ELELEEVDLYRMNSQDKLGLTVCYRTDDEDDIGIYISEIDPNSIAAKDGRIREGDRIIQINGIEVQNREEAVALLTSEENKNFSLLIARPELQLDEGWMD

LNX2_4, Q8N448 = target: T5, LNX2_4, Q8N448
T5 sequence (Q8N448 595-690, limits assumed, looked up): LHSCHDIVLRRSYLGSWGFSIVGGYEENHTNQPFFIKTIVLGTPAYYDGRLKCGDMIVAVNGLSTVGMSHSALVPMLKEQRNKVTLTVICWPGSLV

TJP3_1, O95049 = target: T6, TJP3_1, O95049
T6 sequence (O95049 6-103, limits assumed, looked up): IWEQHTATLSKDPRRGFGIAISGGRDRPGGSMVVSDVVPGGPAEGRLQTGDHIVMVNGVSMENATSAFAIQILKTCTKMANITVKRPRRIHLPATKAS

PARD3B_3, Q8TEW8 = target: PARD3B_3, Q8TEW8
Sequence of PARD3B_3, Q8TEW8 (Q8TEW8 490-594): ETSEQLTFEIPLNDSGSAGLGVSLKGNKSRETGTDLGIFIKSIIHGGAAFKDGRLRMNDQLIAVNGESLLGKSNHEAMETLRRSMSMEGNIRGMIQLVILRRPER

MPDZ_11, O75970 = target: T7, MPDZ_11, O75970
T7 sequence (O75970 1720-1817, limits assumed, looked up): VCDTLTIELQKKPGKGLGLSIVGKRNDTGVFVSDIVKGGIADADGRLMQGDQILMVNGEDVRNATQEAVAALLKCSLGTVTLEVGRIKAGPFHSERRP

MAGI1_5, Q96QZ7 = target: MAGI1_5, Q96QZ7
Sequence of MAGI1_5, Q96QZ7 (Q96QZ7 986-1098): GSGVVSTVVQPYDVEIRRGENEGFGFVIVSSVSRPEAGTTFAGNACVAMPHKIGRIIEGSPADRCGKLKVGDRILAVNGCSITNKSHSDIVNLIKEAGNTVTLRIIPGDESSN

PARD6B, Q9BYG5 = target: T8, PARD6B, Q9BYG5
T8 sequence (Q9BYG5 152-260, limits assumed, looked up): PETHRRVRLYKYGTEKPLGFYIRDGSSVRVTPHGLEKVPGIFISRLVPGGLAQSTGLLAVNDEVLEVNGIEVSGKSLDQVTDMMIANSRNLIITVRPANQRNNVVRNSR

CNKSR3, Q6P9H4 = target: CNKSR3, Q6P9H4
Sequence of CNKSR3, Q6P9H4 (Q6P9H4 203-303): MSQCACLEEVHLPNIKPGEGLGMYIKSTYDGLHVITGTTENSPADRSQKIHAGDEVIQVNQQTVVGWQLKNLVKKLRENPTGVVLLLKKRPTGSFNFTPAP

SDCBP_1, O00560 = target: SDCBP_1, O00560
Sequence of SDCBP_1, O00560 (O00560 111-198): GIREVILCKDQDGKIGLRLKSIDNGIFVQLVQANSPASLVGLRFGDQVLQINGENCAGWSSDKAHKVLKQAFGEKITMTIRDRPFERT

LIMK1, P53667 = target: LIMK1, P53667
Sequence of LIMK1, P53667 (P53667 155-268): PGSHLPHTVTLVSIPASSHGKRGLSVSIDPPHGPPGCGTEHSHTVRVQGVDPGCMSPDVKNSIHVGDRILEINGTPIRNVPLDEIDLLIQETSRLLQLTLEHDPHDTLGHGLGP

PDZD2_4, O15018 = target: T9, PDZD2_4, O15018
T9 sequence (O15018 723-823, limits assumed, looked up): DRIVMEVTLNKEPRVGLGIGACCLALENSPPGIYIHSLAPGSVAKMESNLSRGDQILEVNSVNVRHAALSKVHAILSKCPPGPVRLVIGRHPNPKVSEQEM

Inadl_7, Q8NI35 = target: Inadl_7, Q8NI35
Sequence of Inadl_7, Q8NI35 (Q8NI35 1219-1332): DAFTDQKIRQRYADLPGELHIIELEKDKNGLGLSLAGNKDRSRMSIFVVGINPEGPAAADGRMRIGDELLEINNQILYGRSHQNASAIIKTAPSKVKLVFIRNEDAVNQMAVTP

LMO7, Q8WWI1 = target: LMO7, Q8WWI1
Sequence of LMO7, Q8WWI1 (Q8WWI1 1037-1138): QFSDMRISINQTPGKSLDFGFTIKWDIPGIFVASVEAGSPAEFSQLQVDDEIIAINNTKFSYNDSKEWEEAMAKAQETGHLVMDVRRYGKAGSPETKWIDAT

LNX1_4, Q8TBB1 = target: LNX1_4, Q8TBB1
Sequence of LNX1_4, Q8TBB1 (Q8TBB1 631-726): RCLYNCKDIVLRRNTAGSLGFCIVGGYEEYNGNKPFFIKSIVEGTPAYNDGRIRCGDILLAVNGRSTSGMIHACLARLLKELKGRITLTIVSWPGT

PTPN13_5, Q12923 = target: T10, PTPN13_5, Q12923
T10 sequence (Q12923 1877-1975, limits assumed, looked up): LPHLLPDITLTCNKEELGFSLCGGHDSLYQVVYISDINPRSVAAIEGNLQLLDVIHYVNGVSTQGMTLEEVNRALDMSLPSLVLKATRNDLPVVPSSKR

IL16_2, Q14005 = target: IL16_2, Q14005
Sequence of IL16_2, Q14005 (Q14005 350-450): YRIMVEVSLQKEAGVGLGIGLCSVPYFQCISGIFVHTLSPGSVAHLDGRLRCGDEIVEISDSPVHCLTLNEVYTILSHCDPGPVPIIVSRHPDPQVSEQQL

PTPN4, P29074 = target: T11, PTPN4, P29074
T11 sequence (P29074 512-599, limits assumed, looked up): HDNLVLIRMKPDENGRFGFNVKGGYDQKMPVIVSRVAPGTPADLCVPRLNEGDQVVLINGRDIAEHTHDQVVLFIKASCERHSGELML

TJP3_2, O95049 = target: T12, TJP3_2, O95049
T12 sequence (O95049 190-282, limits assumed, looked up): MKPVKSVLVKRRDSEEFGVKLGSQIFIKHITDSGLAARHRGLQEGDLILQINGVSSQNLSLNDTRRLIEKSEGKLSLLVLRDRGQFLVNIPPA

PDZD9, Q8IXQ8 = target: PDZD9, Q8IXQ8
Sequence of PDZD9, Q8IXQ8 (Q8IXQ8 23-120): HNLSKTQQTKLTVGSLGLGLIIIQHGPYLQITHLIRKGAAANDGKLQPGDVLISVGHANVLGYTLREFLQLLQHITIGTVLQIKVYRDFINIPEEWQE

PARD3_1, Q8TEW0 = target: PARD3_1, Q8TEW0
Sequence of PARD3_1, Q8TEW0 (Q8TEW0 264-372): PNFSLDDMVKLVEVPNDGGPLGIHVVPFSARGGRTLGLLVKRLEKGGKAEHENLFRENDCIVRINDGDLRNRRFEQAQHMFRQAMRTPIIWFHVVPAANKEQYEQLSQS

GIPC3, Q8TF64 = target: GIPC3, Q8TF64
Sequence of GIPC3, Q8TF64 (Q8TF64 107-202): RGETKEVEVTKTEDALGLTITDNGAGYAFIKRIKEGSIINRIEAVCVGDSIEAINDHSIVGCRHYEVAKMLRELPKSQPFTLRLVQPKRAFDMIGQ

Measured: pKd

Sequence of RGS3, P49796-9 (P49796 other isoform, or with tags, fused parts or gaps): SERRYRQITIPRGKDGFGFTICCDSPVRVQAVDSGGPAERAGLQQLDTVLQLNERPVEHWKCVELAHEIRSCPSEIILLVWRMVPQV

NLNSSEGVPDLLV [SARS-CoV-E, P59637]
3.79: PARD3_1, Q8TEW0
3.74: NHERF1_2, O14745 | LNX2_4, Q8N448
4.31: MLLT4, P55196
below the threshold: all other assays above
